Results from the supplement of paper PMC12764529.
± gives the half width of the 95% confidence interval.

Key:
[1] = folding stability dG unfold from trypsin proteolysis; higher = more stable
In short: (§1)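 Sequencing followed digestion of designed mini-proteins with trypsin and chymotrypsin, each at 11 concentrations in threefold dilutions together with a no-protease condition. The mini-proteins were under 80 residues, had no cysteine, sat in a PA-tagged cDNA display construct, and were kept only if AlphaFold2 dimer inter-PAE was above 15. From the counts, Bayesian fitting gave K50, and unfolding free energy was derived against a sequence-predicted unfolded-state K50 and a shared folded-state K50, per protease or combined.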

[2] = folding stability dG unfold from chymotrypsin proteolysis; higher = more stable
In short: as §1

[3] = folding stability dG unfold (combined trypsin and chymotrypsin); higher = more stable
In short: as §1

Sequence | folding stability dG unfold [1] | folding stability dG unfold [2] | folding stability dG unfold [3]
SAGGSAGGSAGLELTVGDVPVDVYVDPDTERALAYFPLFNRVAIVDLPTGKVYVVPLDDILSAGGSAGGSAG [r3_137_TrMRF] | 1.25 ± 0.04 kcal/mol | 1.11 ± 0.14 kcal/mol | 1.15 ± 0.076 kcal/mol
SAGGSAGGSAGLIVTHPDGGVTTLRLTLTFTFEGPVGPPKTVTFEFTLTVAPNGTEVTLESAGGSAGGSAGG [r11_271_TrMRF] | 3.34 ± 0.16 kcal/mol | 5.11 ± 0.11 kcal/mol | 4.72 ± 0.27 kcal/mol
SAGGSAGGSAGLKLLEKELRVLTYDPETGSLSESTLRVPVLLVPPVPVPVLDPNGGLTLASAGGSAGGSAGG [r11_307_TrMRF] | -0.696 ± 0.27 kcal/mol | 0.407 ± 0.14 kcal/mol | 0.143 ± 0.11 kcal/mol
SAGGSAGGSAGLLPIEELLKKNPEPVTFMVKDNDTLYRIEITPKDGKWTIEIEPLPGMKPSAGGSAGGSAGG [r11_549_TrROS] | 0.756 ± 0.021 kcal/mol | 1.49 ± 0.077 kcal/mol | 1.2 ± 0.043 kcal/mol
SAGGSAGGSAGLPPGDKVTISIPIVIPDGYMINSHITIDPDNGETEIEIQIYPLKDPDALSAGGSAGGSAGG [r11_695_TrROS] | 2.1 ± 0.21 kcal/mol | 2.12 ± 0.11 kcal/mol | 2.11 ± 0.14 kcal/mol
SAGGSAGGSAGLTLEVELPDGKPFPVEVLEVDPGEEDVVVIRVKVKVGDKEYEVTLVLDLSAGGSAGGSAGG [r17_536_TrMRF] | 1.94 ± 0.095 kcal/mol | 1.76 ± 0.08 kcal/mol | 1.9 ± 0.15 kcal/mol
SAGGSAGGSAGMAIGLEEILARLDPERIISVEVDEENPLVTVKLRPPSGETKTITFKLSLSAGGSAGGSAGG [r17_374_JUSTAS] | 1.21 ± 0.03 kcal/mol | 0.669 ± 0.11 kcal/mol | 1.06 ± 0.07 kcal/mol
SAGGSAGGSAGMDIDILTETEVTRYPDGTVVTTTTTRDSSGEVLSTTTTTTTVTPATPAASAGGSAGGSAGG [r11_452_JUSTAS] | 2.24 ± 0.15 kcal/mol | 2.6 ± 0.057 kcal/mol | 2.47 ± 0.069 kcal/mol
SAGGSAGGSAGMDIPLTFTAPNADGQPVKVRVEKIIPEKGYLLVRVEYPDDREETFLDPFSAGGSAGGSAGG [r11_742_TrMRF] | -0.118 ± 0.14 kcal/mol | -0.167 ± 0.13 kcal/mol | -0.0666 ± 0.08 kcal/mol
SAGGSAGGSAGMEFEVLEVIPPELLAEGGEITVGLPDGERLLVRVSPDGGVKEVRLLPPESAGGSAGGSAGG [r17_2_TrMRF] | 0.811 ± 0.12 kcal/mol | -0.435 ± 0.22 kcal/mol | 0.236 ± 0.16 kcal/mol
SAGGSAGGSAGMEISTKTLPGDKYELTITLPDSKGTPITVTITFTSEEEAKKKLEEIIKKSAGGSAGGSAGG [r11_819_JUSTAS] | 1.29 ± 0.068 kcal/mol | 2.7 ± 0.11 kcal/mol | 2.27 ± 0.084 kcal/mol
SAGGSAGGSAGMEITRDKTPDGVWTVTITVPRPDGPSITVTVTGSPDGDFAPEKIAAVLASAGGSAGGSAGG [r11_759_JUSTAS] | 1.15 ± 0.038 kcal/mol | 0.078 ± 0.19 kcal/mol | 0.819 ± 0.13 kcal/mol
SAGGSAGGSAGMELKIKVTLTPPGAPVPLTLELEVESEEEARERLEKEYPDREIELEVLESAGGSAGGSAGG [r17_428_JUSTAS] | -0.534 ± 0.072 kcal/mol | 0.354 ± 0.088 kcal/mol | 0.143 ± 0.093 kcal/mol
SAGGSAGGSAGMELTVKVPPDTTPEEVKEKIEKELGLKVKSISVSSFPDGTRTVTITIGPSAGGSAGGSAGG [r17_222_JUSTAS] | 2.45 ± 0.27 kcal/mol | 2.45 ± 0.14 kcal/mol | 2.45 ± 0.21 kcal/mol
SAGGSAGGSAGMEPEIYTITTTDSNGNTSSYTFTSTEEVNAFLNDPSFQSSAVSFTVSPTSAGGSAGGSAGG [r11_1047_JUSTAS] | 2.57 ± 0.053 kcal/mol | 2.88 ± 0.047 kcal/mol | 2.76 ± 0.076 kcal/mol
SAGGSAGGSAGMEPIRVTVTTQDTATGTTTTTTVTVPTDVPVEAVLAALDPALVTAVTVESAGGSAGGSAGG [r11_386_JUSTAS] | 1.68 ± 0.061 kcal/mol | -0.172 ± 0.072 kcal/mol | 0.808 ± 0.11 kcal/mol
SAGGSAGGSAGMETTVLEEVPPEELAKGQTRLEKLPDGTIIERTVAPEGEVVETKTIPPKSAGGSAGGSAGG [r17_2_JUSTAS] | 1.94 ± 0.21 kcal/mol | 0.421 ± 0.12 kcal/mol | 1.09 ± 0.48 kcal/mol
SAGGSAGGSAGMFVERTLEITFVRPPNGPGPEEVEKRAKELQEKNPHLNVKVKVVDPSEASAGGSAGGSAGG [r17_220_JUSTAS] | 0.669 ± 0.086 kcal/mol | 0.795 ± 0.1 kcal/mol | 0.699 ± 0.26 kcal/mol

Sequence | folding stability dG unfold [1] | folding stability dG unfold [2] | folding stability dG unfold [3]
SAGGSAGGSAGMIDIKFEKIEGSSEYRATLTRPGGEVVPVLFSSSESAEEAKERAIELLESAGGSAGGSAGG [r17_161_JUSTAS] | 0.906 ± 0.06 kcal/mol | 1.28 ± 0.11 kcal/mol | 1.15 ± 0.12 kcal/mol
SAGGSAGGSAGMIKIEETVVLPDGTVVRKEKEIEPPNGKTTTLKTETVPVLSPGSESLLLSAGGSAGGSAGG [r11_919_JUSTAS] | 0.429 ± 0.041 kcal/mol | 0.313 ± 0.074 kcal/mol | 0.461 ± 0.067 kcal/mol
SAGGSAGGSAGMIVAKVVEYDPETGEITIEVDGKKITLPLKNMKIKEVNGYLVIEFKEDDSAGGSAGGSAGG [r17_403_TrROS_Hall] | 2.89 ± 0.11 kcal/mol | 3.43 ± 0.082 kcal/mol | 3.25 ± 0.072 kcal/mol
SAGGSAGGSAGMIVIKNPETKEYYVIKFDGKEYVIELSEDELKELLEKLKGKDVEIKKLPSAGGSAGGSAGG [r11_57_TrROS_Hall] | 2.01 ± 0.16 kcal/mol | 1.93 ± 0.048 kcal/mol | 1.96 ± 0.2 kcal/mol
SAGGSAGGSAGMIVLFPLEEKKFIIYDPETGKVEEIEGTPEEVLEYAKKKYPDKEVYLLPSAGGSAGGSAGG [r11_614_TrMRF] | 3.25 ± 0.36 kcal/mol | 5.19 ± 0.3 kcal/mol | 5.15 ± 0.49 kcal/mol
SAGGSAGGSAGMKIEIELDENGELRIRITVYNKETKEEVEEFEFTLPLEELEEELRKLLESAGGSAGGSAGG [r11_376_TrROS_Hall] | 3.16 ± 0.12 kcal/mol | 3.62 ± 0.15 kcal/mol | 3.5 ± 0.22 kcal/mol
SAGGSAGGSAGMKIEYEHDPNRNWYTVKIDFPNGPPKIPIQVPHDDMPPNDLRDWAKELFSAGGSAGGSAGG [r11_557_TrROS] | 0.459 ± 0.12 kcal/mol | 0.58 ± 0.33 kcal/mol | 0.475 ± 0.28 kcal/mol
SAGGSAGGSAGMKIKFPNGKVVEIHMDEDSGNIEIEFPDGKKKEINIPGMSIDDILDYLKSAGGSAGGSAGG [r11_729_TrROS] | 1.56 ± 0.036 kcal/mol | 1.46 ± 0.033 kcal/mol | 1.59 ± 0.045 kcal/mol
SAGGSAGGSAGMKKVLIIGGPKEELAKELKEKSPDIEVEFLDPSEDLEEYKKKFDIVIIESAGGSAGGSAGG [r17_225_JUSTAS] | -0.387 ± 0.09 kcal/mol | 0.255 ± 0.072 kcal/mol | 0.0867 ± 0.084 kcal/mol
SAGGSAGGSAGMKLPEGWEIVAVYRDKETNKLYLIVRDTKTKKLLIVDLDTKKIISAEELSAGGSAGGSAGG [r11_268_TrROS_Hall] | 3.63 ± 0.18 kcal/mol | 4.1 ± 0.13 kcal/mol | 4.06 ± 0.1 kcal/mol
SAGGSAGGSAGMKNKNYKVYTYKINIIDPGYENTTIIVEPNPAKPKAKPITIPIIIVEPASAGGSAGGSAGG [r11_257_TrMRF] | 0.57 ± 0.083 kcal/mol | 1.03 ± 0.18 kcal/mol | 0.797 ± 0.21 kcal/mol
SAGGSAGGSAGMKPDDTVTYTITVPHPESGEPLAEIELTYPVGTPIEKVKEEAKILAEKISAGGSAGGSAGG [r11_516_TrMRF] | 0.515 ± 0.03 kcal/mol | 0.141 ± 0.27 kcal/mol | 0.429 ± 0.088 kcal/mol
SAGGSAGGSAGMKTLKTTTKVFPGTGVIVTESLVEFPNGSLKKLTKVTYVKNPNPSTTLASAGGSAGGSAGG [r17_41_JUSTAS] | 0.474 ± 0.093 kcal/mol | 0.545 ± 0.14 kcal/mol | 0.602 ± 0.19 kcal/mol
SAGGSAGGSAGMKTRTITVSVSPEESEEEVRERVEAELPPGSVVEVTRLPDGTVVVTVEESAGGSAGGSAGG [r17_20_JUSTAS] | 0.401 ± 0.043 kcal/mol | 1.99 ± 0.035 kcal/mol | 1.55 ± 0.048 kcal/mol
SAGGSAGGSAGMKTVTETEFDPAAPVVTTTTSLVTLPPDGKPSITSTTTTTTAVAAPAAAASAGGSAGGSAG [r3_138_JUSTAS] | -0.0492 ± 0.05 kcal/mol | 1.41 ± 0.038 kcal/mol | 1.03 ± 0.062 kcal/mol
SAGGSAGGSAGMKVAVLTIPENGKPVLVVELPDGGALAFDPDTDAVFLLDDDKIYYLGPASAGGSAGGSAGG [r17_476_TrMRF] | 0.0117 ± 0.033 kcal/mol | 1.52 ± 0.059 kcal/mol | 1.13 ± 0.075 kcal/mol
SAGGSAGGSAGMKVEEVPETPVWRFTITRGKKTTIVEVEVPPDEPPDPAEVAAELGYELESAGGSAGGSAGG [r11_1053_JUSTAS] | 1.84 ± 0.075 kcal/mol | 1.65 ± 0.18 kcal/mol | 1.89 ± 0.25 kcal/mol
SAGGSAGGSAGMKVKTDPSSGPTVNKAYLENGTLILTTVTYDPSNGTTSTTTTVVPLSLLSAGGSAGGSAGG [r17_287_JUSTAS] | 0.433 ± 0.12 kcal/mol | 1.23 ± 0.22 kcal/mol | 0.823 ± 0.21 kcal/mol
